Results reported in paper PMC4840364 (Scientific Reports, 2016).

B1: wild-type 5G6 Fab fragment (recombinant) (Fab, V domains shown)
VH: QVTLKESGPGILQPSQTLSLTCSFSGFSLSTSNMGVVWIRQPSGKGLEWLLHILWNDGKFYNPALKSRLTISKDTYNNQVFLKIANVDTADTATYYCARLFTTTTSGYFDVWGAGTTVTVSS
VL: DIQMTQSPASLSASVGETVTITCRASGNIYNYLAWYQQKQGKSPQLLVYNAKTLADGVPSRFSGSGSGTQYSLKINSLQPEDFGSYFCQHFWDTPWTFGGGTKLEIK
notes: heavy chain of 5G6 Fab, as the heavy chain of m1; light chain of 5G6 Fab, as the light chain of m1; cDNA of both chains cloned from 5G6 hybridoma mRNA into pcDNA3.1 with a C-terminal 6xHis tag; also called 5G6-WT; source: CHO cells, transiently cotransfected, purified from medium (Ni-NTA, Superdex 200)
B2: mutant 5G6 Fab 5G6-M2 (Fab, V domains shown)
VH: QVTLKESGPGILQPSQTLSLTCSFSGFSLSTSNMGVVWIRQPSGKGLEWLLHILWNDGKFYNPALKSRLTISKDTYNNQVFLKIANVDTADTATYYCARLFAAAASGYFDVWGAGTTVTVSS
VL: DIQMTQSPASLSASVGETVTITCRASGNIYNYLAWYQQKQGKSPQLLVYNAKTLADGVPSRFSGSGSGTQYSLKINSLQPEDFGSYFCQHFWATPWTFGGGTKLEIK
notes: as the heavy chain of m2 with Thr102-105 of CDRH3 replaced with Ala; as the light chain of m2 with Asp93 of CDRL3 replaced with Ala; five point mutations in the interface

Target: T1, glycoprotein Ibα (GPIbα) on human platelets (Homo sapiens, UniProt P07359)
T1 construct: human platelet glycoprotein Ibα, endogenous on platelets; On platelets GPIbα stands in the GPIb-IX complex with GPIbβ and GPIX; also called full length GPIbα expressed on the cell surface; source: endogenous, on human platelets
Test: flow cytometry on cells; human platelets (1.5 x 10^6 cells/well) incubated with Fab fragments at room temperature for 20 min, FITC-conjugated goat anti-mouse IgG, MFI of 10,000 cells
Settings: one partner purified

Binder | binding result
B1 | binds
B2 | no binding
